# Reference: paper PMC6557205, “Functional interplay between YY1 and CARM1 promotes oral carcinogenesis”
# Target: His-YY1 full length (UniProt P25490 1-414)
# Assay: EMSA; unlabelled probe competes; anti-His supershift; EMSA buffer 10% glycerol, 75 mM KCl, 10 mM HEPES (pH not stated), 5 mM MgCl2; 30 C, 30 min (Fig 7F: 15 min methylation + 15 min binding); 5% native PAGE in 0.5X TBE at 4 C
# Settings: protein: recombinant; tags: His (pET28b); label: 32P 5' end label on one strand; blunt
# Sequence of His-YY1 full length (P25490 whole entry): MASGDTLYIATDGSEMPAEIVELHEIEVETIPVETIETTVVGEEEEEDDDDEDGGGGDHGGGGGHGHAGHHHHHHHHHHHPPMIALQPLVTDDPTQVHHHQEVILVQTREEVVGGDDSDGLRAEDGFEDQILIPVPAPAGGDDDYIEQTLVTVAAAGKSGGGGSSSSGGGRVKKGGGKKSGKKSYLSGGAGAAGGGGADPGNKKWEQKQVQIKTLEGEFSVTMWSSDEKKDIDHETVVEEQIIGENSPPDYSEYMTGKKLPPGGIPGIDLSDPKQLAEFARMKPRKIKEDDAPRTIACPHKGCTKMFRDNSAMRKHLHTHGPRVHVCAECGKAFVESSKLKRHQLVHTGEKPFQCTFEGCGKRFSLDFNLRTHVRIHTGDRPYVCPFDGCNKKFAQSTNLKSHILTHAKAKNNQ
binder,measurement,value
CARM1proYY1_BS1 (dsDNA) DNA 1: GGGACCTCTGGATCCCATGGTTGGATGGCTGGGGGGTGGA DNA 2: TCCACCCCCCAGCCATCCAACCATGGGATCCAGAGGTCCC,binding result,binds
